Reference: patent publication US20220153847A1 (Chugai, published 2022)

What was measured:
[1] = target: DQ2.5/omega 1 gliadin peptide on IHW9023 cells (human); test: cell-based or functional assay
[2] = target: DQ2.5/alpha 2 gliadin peptide on IHW9023 cells (human); test: cell-based or functional assay
[3] = target: DQ2.5/alpha 1b gliadin peptide on IHW9023 cells (human); test: cell-based or functional assay
[4] = target: DQ2.5/alpha 1 gliadin peptide on IHW9023 cells (human); test: cell-based or functional assay
[5] = target: T1, HLA-DQ2.5/omega 1 gliadin peptide complex on Ba/F3 cells (human); test: FACS, Ba/F3 cells; IC17=0%, DQN0139bb=100%;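 further: flow cytometric binding of anti-HLA-DQ antibodies, each applied at 5 µg/mL for 30 min at room temperature, to Ba/F3 cell lines displaying HLA-DQ–peptide complexes; antibody tested at 5 microgram/mL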
T1 construct: whole, on cells; also called Ba/F3-HLA-DQ2.5/omega 1 gliadin; HLA-DQ2.5/w1 gliadin
Description: (§1) The binding of anti-HLA-DQ antibodies to Ba/F3-HLA-DQ2.5, Ba/F3-HLA-DQ2.2, Ba/F3-HLA-DQ7.5, Ba/F3-HLA-DQ8, Ba/F3-HLA-DQ5.1, Ba/F3-HLA-DQ6.3, Ba/F3-HLA-DQ7.3, Ba/F3-HLA-DR, Ba/F3-HLA-DP, Ba/F3-HLA-DQ2.5/CLIP, Ba/F3-HLA-DQ2.5/HBV, Ba/F3-HLA-DQ2.5/Salmonella, Ba/F3-HLA-DQ2.5/TPO, Ba/F3-HLA-DQ2.5/M. bovis, Ba/F3-HLA-DQ2.5/alpha 1 gliadin, Ba/F3-HLA-DQ2.5/alpha 2 gliadin, Ba/F3-HLA-DQ2.5/gamma 1 gliadin, Ba/F3-HLA-DQ2.5/gamma 2 gliadin, Ba/F3-HLA-DQ2.5/omega 1 gliadin, Ba/F3-HLA-DQ2.5/omega 2 gliadin, Ba/F3-HLA-DQ2.5/BC hordein, Ba/F3-HLA-DQ2.5/alpha 3 gliadin, Ba/F3-HLA-DQ2.5/alpha 1b gliadin, Ba/F3-HLA-DQ2.5/gamma 4b gliadin, Ba/F3-HLA-DQ2.5/avenin 1, Ba/F3-HLA-DQ2.5/avenin 2, Ba/F3-HLA-DQ2.5/avenin 3, Ba/F3-HLA-DQ2.5/hordein 1, Ba/F3-HLA-DQ2.5/hordein 2, Ba/F3-HLA-DQ2.5/secalin 1, Ba/F3-HLA-DQ2.5/secalin 2, Ba/F3-HLA-DQ2.5/14mer 1, Ba/F3-HLA-DQ2.5/33mer gliadin, Ba/F3-HLA-DQ2.5/26mer gliadin, was tested. 5 microgram/mL of each of the anti-HLA-DQ antibodies was incubated with each cell line for 30 minutes at room temperature and washed with FACS buffer (2% FBS, 2 mM EDTA in PBS).

[6] = target: T2, HLA-DQ2.5/secalin 2 peptide complex on Ba/F3 cells (human); test: FACS, Ba/F3 cells; IC17=0%, DQN0139bb=100%;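 further: flow cytometric binding of anti-HLA-DQ antibodies, each applied at 5 µg/mL for 30 min at room temperature, to Ba/F3 cell lines displaying HLA-DQ–peptide complexes; antibody tested at 5 microgram/mL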
T2 construct: whole, on cells; also called Ba/F3-HLA-DQ2.5/secalin 2
Description: as §1

[7] = target: T3, HLA-DQ2.5/alpha 1 gliadin peptide complex on Ba/F3 cells (human); test: FACS, Ba/F3 cells; IC17=0%, DQN0139bb=100%;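 further: flow cytometric binding of anti-HLA-DQ antibodies, each applied at 5 µg/mL for 30 min at room temperature, to Ba/F3 cell lines displaying HLA-DQ–peptide complexes; antibody tested at 5 microgram/mL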
T3 construct: whole, on cells; also called Ba/F3-HLA-DQ2.5/alpha 1 gliadin; HLA-DQ2.5/a1 gliadin
Description: as §1

[8] = target: T4, HLA-DQ2.5/avenin 3 peptide complex on Ba/F3 cells (human); test: FACS, Ba/F3 cells; IC17=0%, DQN0139bb=100%;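 further: flow cytometric binding of anti-HLA-DQ antibodies, each applied at 5 µg/mL for 30 min at room temperature, to Ba/F3 cell lines displaying HLA-DQ–peptide complexes; antibody tested at 5 microgram/mL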
T4 construct: whole, on cells; also called Ba/F3-HLA-DQ2.5/avenin 3
Description: as §1

[9] = target: T5, HLA-DQ2.5/avenin 2 peptide complex on Ba/F3 cells (human); test: FACS, Ba/F3 cells; IC17=0%, DQN0139bb=100%
T5 construct: whole, on cells; also called Ba/F3-HLA-DQ2.5/avenin 2
Description: as §1

[10] = target: T6, HLA-DQ2.5/avenin 1 peptide complex on Ba/F3 cells (human); test: FACS, Ba/F3 cells; IC17=0%, DQN0139bb=100%
T6 construct: whole, on cells; also called Ba/F3-HLA-DQ2.5/avenin 1
Description: as §1

[11] = target: T7, HLA-DQ2.5/alpha 2 gliadin peptide complex on Ba/F3 cells (human); test: FACS, Ba/F3 cells; IC17=0%, DQN0139bb=100%
T7 construct: whole, on cells; also called Ba/F3-HLA-DQ2.5/alpha 2 gliadin; HLA-DQ2.5/a2 gliadin
Description: as §1

[12] = target: T8, HLA-DQ2.5/secalin 1 peptide complex on Ba/F3 cells (human); test: FACS, Ba/F3 cells; IC17=0%, DQN0139bb=100%
T8 construct: whole, on cells; also called Ba/F3-HLA-DQ2.5/secalin 1
Description: as §1

[13] = target: T9, HLA-DQ2.5/gamma 1 gliadin peptide complex on Ba/F3 cells (human); test: FACS, Ba/F3 cells; IC17=0%, DQN0139bb=100%
T9 construct: whole, on cells; also called Ba/F3-HLA-DQ2.5/gamma 1 gliadin; HLA-DQ2.5/g1 gliadin
Description: as §1

[14] = target: T10, HLA-DQ2.5/gamma 4b gliadin peptide complex on Ba/F3 cells (human); test: FACS, Ba/F3 cells; IC17=0%, DQN0139bb=100%
T10 construct: whole, on cells; also called Ba/F3-HLA-DQ2.5/gamma 4b gliadin; HLA-DQ2.5/g4b gliadin
Description: as §1

[15] = target: T11, HLA-DQ2.5/alpha 3 gliadin peptide complex on Ba/F3 cells (human); test: FACS, Ba/F3 cells; IC17=0%, DQN0139bb=100%
T11 construct: whole, on cells; also called Ba/F3-HLA-DQ2.5/alpha 3 gliadin; HLA-DQ2.5/a3 gliadin
Description: as §1

[16] = target: T12, HLA-DQ2.5/hordein 1 peptide complex on Ba/F3 cells (human); test: FACS, Ba/F3 cells; IC17=0%, DQN0139bb=100%
T12 construct: whole, on cells; also called Ba/F3-HLA-DQ2.5/hordein 1
Description: as §1

[17] = target: T13, HLA-DQ2.5/alpha 1b gliadin peptide complex on Ba/F3 cells (human); test: FACS, Ba/F3 cells; IC17=0%, DQN0139bb=100%
T13 construct: whole, on cells; also called Ba/F3-HLA-DQ2.5/alpha 1b gliadin; HLA-DQ2.5/a1b gliadin
Description: as §1

[18] = target: T14, HLA-DQ2.5/33mer gliadin peptide complex on Ba/F3 cells (human); test: FACS, Ba/F3 cells; IC17=0%, DQN0139bb=100%
T14 construct: whole, on cells; also called Ba/F3-HLA-DQ2.5/33mer gliadin
Description: as §1

[19] = target: T15, HLA-DQ2.5/26mer gliadin peptide complex on Ba/F3 cells (human); test: FACS, Ba/F3 cells; IC17=0%, DQN0139bb=100%
T15 construct: whole, on cells; also called Ba/F3-HLA-DQ2.5/26mer gliadin
Description: as §1

[20] = target: DQ2.5/BC hordein peptide on IHW9023 cells (human); test: cell-based or functional assay
[21] = target: DQ2.5/gamma 4a gliadin peptide on IHW9023 cells (human); test: cell-based or functional assay
[22] = target: DQ2.5/gamma 1 gliadin peptide on IHW9023 cells (human); test: cell-based or functional assay
[23] = target: DQ2.5/omega 2 gliadin peptide on IHW9023 cells (human); test: cell-based or functional assay
[24] = target: DQ2.5/gamma 2 gliadin peptide on IHW9023 cells (human); test: cell-based or functional assay
[25] = target: T16, HLA-DQ2.5 on HLA-DQ2.5-positive PBMC B cells (human, UniProt P01909 24-254; P01920 33-261); test: FACS, PBMC B cells; IC17=0%, DQN0139bb=100%
T16 construct: whole, on cells; also called HLA-DQ2.5+ PBMC B cell
T16 MHC II alpha: not shown
T16 MHC II beta: not shown

[26] = target: T17, HLA-DQ2.5/hordein 2 peptide complex on Ba/F3 cells (human); test: FACS, Ba/F3 cells; IC17=0%, DQN0139bb=100%
T17 construct: whole, on cells; also called Ba/F3-HLA-DQ2.5/hordein 2
Description: as §1

[27] = target: T18, HLA-DQ2.5/gamma 2 gliadin peptide complex on Ba/F3 cells (human); test: FACS, Ba/F3 cells; IC17=0%, DQN0139bb=100%
T18 construct: whole, on cells; also called Ba/F3-HLA-DQ2.5/gamma 2 gliadin; HLA-DQ2.5/g2 gliadin
Description: as §1

[28] = target: T19, HLA-DQ2.5/omega 2 gliadin peptide complex on Ba/F3 cells (human); test: FACS, Ba/F3 cells; IC17=0%, DQN0139bb=100%
T19 construct: whole, on cells; also called Ba/F3-HLA-DQ2.5/omega 2 gliadin; HLA-DQ2.5/w2 gliadin
Description: as §1

[29] = target: T20, HLA-DQ2.5/14mer 1 peptide complex on Ba/F3 cells (human); test: FACS, Ba/F3 cells; IC17=0%, DQN0139bb=100%
T20 construct: whole, on cells; also called Ba/F3-HLA-DQ2.5/14mer 1
Description: as §1

[30] = target: T21, HLA-DQ2.5/CLIP peptide complex on Ba/F3 cells (human); test: FACS, Ba/F3 cells; IC17=0%, DQN0139bb=100%
T21 construct: whole, on cells; also called Ba/F3-HLA-DQ2.5/CLIP
Description: as §1

[31] = target: T22, HLA-DQ2.5/BC hordein peptide complex on Ba/F3 cells (human); test: FACS, Ba/F3 cells; IC17=0%, DQN0139bb=100%
T22 construct: whole, on cells; also called Ba/F3-HLA-DQ2.5/BC hordein
Description: as §1

[32] = target: HLA-DQ2.5/33mer gliadin peptide on IHW9088 cells (human); test: cell-based or functional assay

T21 sequence (P04233 96-124, chain 2 of 2, other chains not shown): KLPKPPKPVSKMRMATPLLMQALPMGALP

B1: DQN0344xx (antibody, V domains shown)
VH: QSLEESGGGLVKPGGTLTLTCTASGFSFSSSYWMCWVRQAPGKGLEWVACVYGGSDTTYYASWTKGRFTISKGSSTTVALQVTSLTAADTATYFCARDPLNYYYYGELNLWGPGTLVTVSS
VL: AVVLTQTASPVSAAVGGTVTIRCQATENIYSGLAWYQQKPGQPPKVLIYYVSTLASGVPSRFKGSGSGTEYTLTISGVQCDDAATYYCQTYHDISNVTFGGGTKVEIK
B1 was tested, and the “IC50, Jurkat NFAT-Luc T cell activation” value [1] was 0.0124 µg/mL, the “IC50, Jurkat NFAT-Luc T cell activation” value [2] was 0.00082 µg/mL and the “IC50, Jurkat NFAT-Luc T cell activation” value [3] was 0.0272 µg/mL. The “IC50, Jurkat NFAT-Luc T cell activation” value [4] was 0.00998 µg/mL, the “% MFI” value [5] was 49.5% and the “% MFI” value [6] was 37.6%. The “% MFI” value [7] was 77.1%, the “% MFI” value [8] was 48.4% and the “% MFI” value [9] was 48.6%. For the same binder, the “% MFI” value [10] was 60.9%, the “% MFI” value [11] was 69.5% and the “% MFI” value [12] was 52.2%. The “% MFI” value [13] was 0.4%, the “% MFI” value [14] was 1% and the “% MFI” value [15] was 42.2%. For the same binder, the “% MFI” value [16] was 18.8%, the “% MFI” value [17] was 66.6% and the “% MFI” value [18] was 107%. The “% MFI” value [19] was 3.2%.

B2: DQN0385ee (antibody, V domains shown)
VH: QEQLEESGGDLVKPGASLTLTCTASGFSFYSSYWICWVRQAPGKGLEWIACIDTGSGSIDYASWVNGRFTISKTSSTTVTLQMTSLTVADTATYFCARDIGIDYNFWGPGTLVTVSS
VL: AFELTQTPSFVEAAVGGTVTIKCQATQSISSYLNWYQQKPGQPPKLLIYYASTLASGVPSRFKGSGSGTEFSLTISGVECADAATYYCHYGISYVSFGGGTKVEIK
notes: also called DQN0385xx
B2 was tested, and the “IC50, Jurkat NFAT-Luc T cell activation” value [20] was 0.0164 µg/mL, the “IC50, Jurkat NFAT-Luc T cell activation” value [21] was 0.381 µg/mL and the “IC50, Jurkat NFAT-Luc T cell activation” value [22] was 0.0217 µg/mL. For the same binder, the “IC50, Jurkat NFAT-Luc T cell activation” value [23] was 0.000758 µg/mL, the “IC50, Jurkat NFAT-Luc T cell activation” value [2] was 0.000264 µg/mL and the “IC50, Jurkat NFAT-Luc T cell activation” value [24] was 4.9 µg/mL. For the same binder, the “IC50, Jurkat NFAT-Luc T cell activation” value [3] was 0.64 µg/mL, the “% MFI” value [25] was 1% and the “% MFI” value [5] was 16.5%. For the same binder, the “% MFI” value [6] was 32.5%, the “% MFI” value [7] was 9.7% and the “% MFI” value [9] was 28%. For the same binder, the “% MFI” value [26] was 71.4%, the “% MFI” value [27] was 20.6% and the “% MFI” value [28] was 53%. For the same binder, the “% MFI” value [29] was 70.7%, the “% MFI” value [30] was 4.4% and the “% MFI” value [10] was 19.1%. The “% MFI” value [11] was 70.9%, the “% MFI” value [13] was 57.7% and the “% MFI” value [14] was 53.6%. The “% MFI” value [15] was 59.7%, the “% MFI” value [16] was 18.2% and the “% MFI” value [17] was 20.3%. For the same binder, the “% MFI” value [31] was 61.8%, the “% MFI” value [18] was 56.2% and the “% MFI” value [19] was 70.8%.

B3: DQN0139bb (antibody, V domains shown)
VH: QSLEESGGRLVTPGTALTLTCTVSGFSLSSYAMGWVRQAPGKGLEYIGWTSPGDSAYYASWTKGRFTISRTSTTVELKITSPTTEDTATYFCARDAAYIGHWAFNLWGPGTLVTVSS
VL: DVVMTQTPASVSAPVGGTVTINCQASESIYSNLAWYQQKPGQPPKLLIYGASTLESGVPSRVKGSGYGTQFTLTISDLECADAATYYCQQYYGSSSTAFTFGGGTKVEIK
B3 was tested, and the “IC50, Jurkat NFAT-Luc T cell activation” value [1] was 0.0719 µg/mL, the “IC50, Jurkat NFAT-Luc T cell activation” value [20] was 0.0759 µg/mL and the “IC50, Jurkat NFAT-Luc T cell activation” value [21] was 0.0769 µg/mL. The “IC50, Jurkat NFAT-Luc T cell activation” value [22] was 0.119 µg/mL, the “IC50, Jurkat NFAT-Luc T cell activation” value [23] was 0.248 µg/mL and the “IC50, Jurkat NFAT-Luc T cell activation” value [2] was 0.0605 µg/mL. For the same binder, the “IC50, Jurkat NFAT-Luc T cell activation” value [3] was 0.0765 µg/mL, the “IC50, Jurkat NFAT-Luc T cell activation” value [4] was 0.0735 µg/mL and the “IC50 (read off the curve)” value [32] was about 0.03 microgram/mL.
